For one molecule, Kd results are on record in US20150266975, “RNA-SPECIFIC BINDING ANTIBODY” (Korea Advanced Institute of Science and Technology, published 2015).

This data set has as its target T1, MabBC200-A3 (Homo sapiens).
T1 chain 1: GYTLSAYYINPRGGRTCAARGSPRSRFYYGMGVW
T1 chain 2: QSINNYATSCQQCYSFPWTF
Kind of data set: filter; room temperature. To be noted: hairpin with internal loops.

B1: RNA (51-120) (ssRNA)
RNA: GGGAGGCGGGAGGAUAGCUUGAGCCCAGGAGUUCGAGACCUGCCUGGGCAAUAUAGCGAGACCCCGUUCUCCC
Regarding B1, the dissociation constant Kd (usually a measure of binding affinity in units of concentration) is roughly 10 nM.
